According to patent publication US6512097:
Read-outs that look alike come from different tables or passages of the source.

Columns and labels:
Assay in all cases: SPR BIAcore
[1] = target: T1, c-erbB-2 ECD with a Ser-Gly-His6 C-terminal fusion (UniProt P04626 23-652)
T1 construct: extracellular domain; Expressed from CHO cells, IMAC purified; coupled to a CM5 chip, coated on plates, or biotinylated with NHS-LC-biotin; also called c-erbB-2 extracellular domain; biotinylated c-erbB-2 ECD

[2] = target: T1, c-erbB-2 ECD with a Ser-Gly-His6 …; remark: listed apart in the source
[3] = target: T1, c-erbB-2 ECD with a Ser-Gly-His6 …; remark: listed apart in the source
Procedure: All assays were performed in triplicate. Briefly, […] of radioiodinated sFv was added to 5×10^6 SK-OV cells in the presence of increasing concentrations of unlabeled sFv from the same preparation. After a 30 minute incubation at 20° C., the samples were washed with PBS at 4° C. and centrifuged at 500 g. The amount of labeled sFv bound to the cells was determined by counting the pellets in a gamma counter and the K_a, and K_d were calculated using the EBDA program (V 2.0, G. A. McPherson, 1983). The K_d of all the other isolated sFv were determined using surface plasmon resonance in a BIAcore (Pharmacia). In a BIAcore flow cell, approximately 1400 resonance units (RU) of c-erbB-2 ECD (25 μg/ml in 10 mM sodium acetate, pH 4.5) was coupled to a CM5 sensor chip (Johnsson et al. (1991), supra). Association and dissociation-rates were measured under continuous flow of […] using a concentration range from 50 to 800 nM. Rate constant $kon$ was determined from a plot of (1(dR/dt))/t vs concentration (Karlsson et al. (1991), supra). Rate constant $Hoff$ was determined from the dissociation part of the sensorgram at the highest concentration of sFv analyzed.
Dashes indicate sequence identity. Mutations arising from PCR error and located outside V_H CDR3 are listed under the heading other mutations. F = frequency of isolated scFv. *$koff$ determined from unpurified scFv samples. Underline indicates mutated residue.

[4] = target: T1, c-erbB-2 ECD with a Ser-Gly-His6 …; remark: listed apart in the source

B1: C6ML3-9 (scFv)
scFv: QVQLLQSGAELKKPGESLKISCKGSGYSFTSYWIAWVRQMPGKGLEYMGLIYPGDSDTKYSPSFQGQVTISVDKSVSTAYLQWSSLKPSDSAVYFCARHDVGYCSSSNCAKWPEYFQHWGQGTLVTVSSGGGGSGGGGSGGGGSQSVLTQPPSVSAAPGQKVTISCSGSSSNIGNNYVSWYQQLPGTAPKLLIYGHTNRPAGVPDRFSGSKSGTSASLAISGFRSEDEADYYCASWDYTLSGWVFGGGTKLTVLG
notes: template (wt) of the VH CDR3 libraries; also called C6ML3-9 (wt); C6ML-9
t1/2 calculated from koff [1]: 0.217 h
Kd [2]: 1 nM
koff [2]: 0.00092 s⁻¹
Kd [3]: 1 nM
koff [3]: 0.00076 s⁻¹
Kd [4]: 1 nM
koff [4]: 0.00019 s⁻¹

B2: C6MH3-B1 (scFv)
scFv: QVQLLQSGAELKKPGESLKISCKGSGYSFTSYWIAWVRQMPGKGLEYMGLIYPGDSDTKYSPSFQGQVTISVDKSVSTAYLQWSSLKPSDSAVYFCARHDVGYCTDRTCAKWPEYFQHWGQGTLVTVSSGGGGSGGGGSGGGGSQSVLTQPPSVSAAPGQKVTISCSGSSSNIGNNYVSWYQQLPGTAPKLLIYGHTNRPAGVPDRFSGSKSGTSASLAISGFRSEDEADYYCASWDYTLSGWVFGGGTKLTVLG
notes: C6ML3-9 sFv, VH CDR3 library B mutant; also called CH3-B1
Kd [1]: 0.12 nM
koff [1]: 6e-05 s⁻¹
t1/2 calculated from koff [1]: 2.25 h
Kd [3]: 0.16 nM
koff [3]: 6.7e-05 s⁻¹

B3: C6MH3-B47 (scFv)
scFv: QVQLLQSGAELKKPGESLKISCKGSGYSFTSYWIAWVRQMPGKGLEYMGLIYPGDSDTKYSPSFQGQVTISVDKSVSTAYLQWSSLKPSDSAVYFCARHDVGYCTDRSCAKWPEYFQHWGQGTLVTVSSGGGGSGGGGSGGGGSQSVLTQPPSVSAAPGQKVTISCSGSSSNIGNNYVSWYQQLPGTAPKLLIYGHTNRPAGVPDRFSGSKSGTSASLAISGFRSEDEADYYCASWDYTLSGWVFGGGTKLTVLG
notes: C6ML3-9 sFv, VH CDR3 library B mutant
fold lower Kd than C6ML3-9 [1]: 9 fold
fold lower Kd than C6.5 [1]: 145 fold
fold lower koff than C6ML3-9 [1]: 10 fold
fold lower koff than C6.5 [1]: 84 fold
Kd [3]: 0.11 nM
koff [3]: 7.5e-05 s⁻¹

B4: C6MH3-C4 (scFv)
scFv: QVQLLQSGAELKKPGESLKISCKGSGYSFTSYWIAWVRQMPGKGLEYMGLIYPGDSDTKYSPSFQGQVTISVDKSVSTAYLQWSSLKPSDSAVYFCARHDVGYCSSSNCAVWPEYFQHWGQGTLVTVSSGGGGSGGGGSGGGGSQSVLTQPPSVSAAPGQKVTISCSGSSSNIGNNYVSWYQQLPGTAPKLLIYGHTNRPAGVPDRFSGSKSGTSASLAISGFRSEDEADYYCASWDYTLSGWVFGGGTKLTVLG
notes: C6ML3-9 sFv, VH CDR3 library C mutant; also called mutant sFv K100gV
fold lower Kd than wt [1]: 2.7 fold
fold lower koff than C6ML3-9 [1]: 3.8 fold
Kd [3]: 0.37 nM
koff [3]: 0.0002 s⁻¹

B5: C6MH3-D2 (scFv)
scFv: QVQLLQSGAELKKPGESLKISCKGSGYSFTSYWIAWVRQMPGKGLEYMGLIYPGDSDTKYSPSFQGQVTISVDKSVSTAYLQWSSLKPSDSAVYFCARHDVGYCSSSNCAKWPEWLGVWGQGTLVTVSSGGGGSGGGGSGGGGSQSVLTQPPSVSAAPGQKVTISCSGSSSNIGNNYVSWYQQLPGTAPKLLIYGHTNRPAGVPDRFSGSKSGTSASLAISGFRSEDEADYYCASWDYTLSGWVFGGGTKLTVLG
notes: C6ML3-9 sFv, VH CDR3 library D mutant
fold change of Kd against wt C6ML3-9 [1]: 7 fold
Kd [3]: 0.16 nM
koff [3]: 0.0002 s⁻¹

B6: C6ML3-5 (scFv)
scFv: QVQLLQSGAELKKPGESLKISCKGSGYSFTSYWIAWVRQMPGKGLEYMGLIYPGDSDTKYSPSFQGQVTISVDKSVSTAYLQWSSLKPSDSAVYFCARHDVGYCSSSNCAKWPEYFQHWGQGTLVTVSSGGGGSGGGGSGGGGSQSVLTQPPSVSAAPGQKVTISCSGSSSNIGNNYVSWYQQLPGTAPKLLIYGHTNRPAGVPDRFSGSKSGTSASLAISGFRSEDEADYYCAAWDYSLSGWVFGGGTKLTVLG
Kd [2]: 3.2 nM
Kd [4]: 3.7 nM

B7: C6ML3-6 (scFv)
scFv: QVQLLQSGAELKKPGESLKISCKGSGYSFTSYWIAWVRQMPGKGLEYMGLIYPGDSDTKYSPSFQGQVTISVDKSVSTAYLQWSSLKPSDSAVYFCARHDVGYCSSSNCAKWPEYFQHWGQGTLVTVSSGGGGSGGGGSGGGGSQSVLTQPPSVSAAPGQKVTISCSGSSSNIGNNYVSWYQQLPGTAPKLLIYGHTNRPAGVPDRFSGSKSGTSASLAISGFRSEDEADYYCASWDYSLSGWVFGGGTKLTVLG
Kd [2]: 3.2 nM
koff [2]: 0.0019 s⁻¹
Kd [4]: 3.2 nM
koff [4]: 0.0019 s⁻¹

B8: C6ML3-7 (scFv)
scFv: QVQLLQSGAELKKPGESLKISCKGSGYSFTSYWIAWVRQMPGKGLEYMGLIYPGDSDTKYSPSFQGQVTISVDKSVSTAYLQWSSLKPSDSAVYFCARHDVGYCSSSNCAKWPEYFQHWGQGTLVTVSSGGGGSGGGGSGGGGSQSVLTQPPSVSAAPGQKVTISCSGSSSNIGNNYVSWYQQLPGTAPKLLIYGHTNRPAGVPDRFSGSKSGTSASLAISGFRSEDEADYYCAAWDYAVSGWVFGGGTKLTVLG
Kd [2]: 2.6 nM
koff [2]: 0.0017 s⁻¹
Kd [4]: 2.6 nM
koff [4]: 0.0017 s⁻¹

B9: C6ML3-12 (scFv)
scFv: QVQLLQSGAELKKPGESLKISCKGSGYSFTSYWIAWVRQMPGKGLEYMGLIYPGDSDTKYSPSFQGQVTISVDKSVSTAYLQWSSLKPSDSAVYFCARHDVGYCSSSNCAKWPEYFQHWGQGTLVTVSSGGGGSGGGGSGGGGSQSVLTQPPSVSAAPGQKVTISCSGSSSNIGNNYVSWYQQLPGTAPKLLIYGHTNRPAGVPDRFSGSKSGTSASLAISGFRSEDEADYYCAAWDYSRSGWVFGGGTKLTVLG
notes: also called CML-3-12
Kd [2]: 1.6 nM
koff [2]: 0.00072 s⁻¹
Kd [4]: 1.6 nM
koff [4]: 0.00072 s⁻¹

B10: C6ML3-13 (scFv)
scFv: QVQLLQSGAELKKPGESLKISCKGSGYSFTSYWIAWVRQMPGKGLEYMGLIYPGDSDTKYSPSFQGQVTISVDKSVSTAYLQWSSLKPSDSAVYFCARHDVGYCSSSNCAKWPEYFQHWGQGTLVTVSSGGGGSGGGGSGGGGSQSVLTQPPSVSAAPGQKVTISCSGSSSNIGNNYVSWYQQLPGTAPKLLIYGHTNRPAGVPDRFSGSKSGTSASLAISGFRSEDEADYYCAAWDATLWGWVFGGGTKLTVLG
Kd [2]: 2.4 nM
koff [2]: 0.0021 s⁻¹

B11: C6ML3-14 (scFv)
scFv: QVQLLQSGAELKKPGESLKISCKGSGYSFTSYWIAWVRQMPGKGLEYMGLIYPGDSDTKYSPSFQGQVTISVDKSVSTAYLQWSSLKPSDSAVYFCARHDVGYCSSSNCAKWPEYFQHWGQGTLVTVSSGGGGSGGGGSGGGGSQSVLTQPPSVSAAPGQKVTISCSGSSSNIGNNYVSWYQQLPGTAPKLLIYGHTNRPAGVPDRFSGSKSGTSASLAISGFRSEDEADYYCAAWDDPLWGWVFGGGTKLTVLG
Kd [2]: 1 nM
koff [2]: 0.00077 s⁻¹
Kd [4]: 1.1 nM
koff [4]: 0.00076 s⁻¹

B12: C6ML3-15 (scFv)
scFv: QVQLLQSGAELKKPGESLKISCKGSGYSFTSYWIAWVRQMPGKGLEYMGLIYPGDSDTKYSPSFQGQVTISVDKSVSTAYLQWSSLKPSDSAVYFCARHDVGYCSSSNCAKWPEYFQHWGQGTLVTVSSGGGGSGGGGSGGGGSQSVLTQPPSVSAAPGQKVTISCSGSSSNIGNNYVSWYQQLPGTAPKLLIYGHTNRPAGVPDRFSGSKSGTSASLAISGFRSEDEADYYCAAWDRPLWGWVFGGGTKLTVLG
notes: also called C6M13-15
Kd [2]: 2.2 nM
Kd [4]: 2.2 nM

B13: C6ML3-19 (scFv)
scFv: QVQLLQSGAELKKPGESLKISCKGSGYSFTSYWIAWVRQMPGKGLEYMGLIYPGDSDTKYSPSFQGQVTISVDKSVSTAYLQWSSLKPSDSAVYFCARHDVGYCSSSNCAKWPEYFQHWGQGTLVTVSSGGGGSGGGGSGGGGSQSVLTQPPSVSAAPGQKVTISCSGSSSNIGNNYVSWYQQLPGTAPKLLIYGHTNRPAGVPDRFSGSKSGTSASLAISGFRSEDEADYYCASWDRPLWGWVFGGGTKLTVLG
Kd [2]: 1.5 nM
koff [2]: 0.001 s⁻¹
Kd [4]: 1.5 nM
koff [4]: 0.001 s⁻¹

B14: C6ML3-23 (scFv)
scFv: QVQLLQSGAELKKPGESLKISCKGSGYSFTSYWIAWVRQMPGKGLEYMGLIYPGDSDTKYSPSFQGQVTISVDKSVSTAYLQWSSLKPSDSAVYFCARHDVGYCSSSNCAKWPEYFQHWGQGTLVTVSSGGGGSGGGGSGGGGSQSVLTQPPSVSAAPGQKVTISCSGSSSNIGNNYVSWYQQLPGTAPKLLIYGHTNRPAGVPDRFSGSKSGTSASLAISGFRSEDEADYYCASWDHSLWGWVFGGGTKLTVLG
Kd [2]: 1.5 nM
koff [2]: 0.0017 s⁻¹
Kd [4]: 1.5 nM
koff [4]: 0.001 s⁻¹

B15: C6ML3-29 (scFv)
scFv: QVQLLQSGAELKKPGESLKISCKGSGYSFTSYWIAWVRQMPGKGLEYMGLIYPGDSDTKYSPSFQGQVTISVDKSVSTAYLQWSSLKPSDSAVYFCARHDVGYCSSSNCAKWPEYFQHWGQGTLVTVSSGGGGSGGGGSGGGGSQSVLTQPPSVSAAPGQKVTISCSGSSSNIGNNYVSWYQQLPGTAPKLLIYGHTNRPAGVPDRFSGSKSGTSASLAISGFRSEDEADYYCAAWDGTLWGWVFGGGTKLTVLG
Kd [2]: 2.7 nM
koff [2]: 0.0022 s⁻¹
Kd [4]: 1.7 nM
koff [4]: 0.0022 s⁻¹
